Series [1] is described as follows: Differential scanning calorimetry in PBS (thermal stability). It counts as physicochemical. The settings on record: DSC in PBS. An excerpt: A subset of the EGFR binding FN3 domains was engineered to increase the conformational stability of each molecule. […] The new mutants, P54AR5-83v2, P54CR431-v2, and P54AR4-37v2 were expressed and purified as described above. Differential scanning calorimetry in PBS was used to assess the stability of each mutant in order to compare it to that of the corresponding parent molecule.
Thermal Stability of c-Met-binding FN3 Domains Differential Scanning Calorimetry in PBS was Used to Assess the Stability of Each FN3 Domain.
Background: Differential scanning calorimetry records heat flow against a reference as temperature is scanned.

Series [2] deals with NCI-H292 cells. Description: HGF-induced NCI-H292 cell proliferation. It counts as cell-based, human. The settings on record: read-out: H292-HGF Proliferation inhibition in HGF-induced H292 cells (IC50). The text has this: The proliferation assay was completed using different combinations EGFR and c-Met binding FN3 domains either as a mixture or linked in a bispecific format. […] This confirmed that the avidity effect observed at the level of the receptors (FIG. 4 and FIG. 5) translates into an improvement in inhibiting cell signaling (Table 12) and cell proliferation (Table 13).
Select bispecific EGFR/c-Met molecules were characterized for their affinity to both EGFR and c-Met, their ability to inhibit EGFR and c-Met autophosphorylation, and their effect on proliferation of HGF cells. Binding affinity of the bispecific EGFR/c-Met molecules to recombinant EGFR and/or c-Met extracellular domain was further evaluated by surface Plasmon resonance methods using a Proteon Instrument (BioRad) according to protocol described in Example 3.

B1: P54AR4-83: EGFR-binding FN3 domain, SEQ ID NO: 25 (protein)
chain: LPAPKNLVVSEVTEDSLRLSWDDPWAFYESFLIQYQESEKVGEAINLTVPGSERSYDLTGLKPGTEYTVSIYGVHNVYKDTNMRGLPLSAEFTT
modifications: EGFR binding FN3 domain
Consider B1, for which the “Tm (° C.)” value in series [1] was found to be 50.6 °C.

B2: P54AR4-37v2: stabilized EGFR-binding FN3 domain, SEQ ID NO: 29 (protein)
chain: LPAPKNLVVSEVTEDSLRLSWTWPYADLDSFLIQYQESEKVGEAINLTVPGSERSYDLTGLKPGTEYTVSIYGVHNVYKDTNMRGLPLSAEFTT
modifications: EGFR binding FN3 domain
B2: the “Tm (° C.)” value in series [1] was determined as 64.2 °C.

B3: P54AR4-37: EGFR-binding FN3 domain, listed with SEQ ID NO: 22 in Table 6 (protein)
chain: LPAPKNLVVSEVTEDSLRLSWTWPYADLDSFLIQYQESEKVGEAINLTVPGSERSYDLTGLKPGTEYTVSIYGVHNVYKDTNMRGLPLSAEFTT
modifications: EGFR binding FN3 domain
Take B3: in series [1], the “Tm (° C.)” value is 45.9 °C.

B4: P114AR7P92-G8: c-Met-binding FN3 domain, SEQ ID NO: 36 (protein)
chain: LPAPKNLVVSRVTEDSARLSWTAPDAAFDSFVIRYFEFLGSGEAIVLTVPGSERSYDLTGLKPGTEYVVQILGVKGGYISIPLSAIFTT
modifications: c-Met binding FN3 domain
For the molecule B4, the “Thermal Stability (Tm, C.)” value in series [1] turned out to be 90.9 C.

B5: P114AR7P95-F10: c-Met-binding FN3 domain, SEQ ID NO: 47 (protein)
chain: LPAPKNLVVSRVTEDSARLSWTAPDAAFDSFWIRYFEFTTAGEAIVLTVPGSERSYDLTGLKPGTEYVVNIMGVKGGSISPPLSAIFTT
modifications: c-Met binding FN3 domain
For B5, the “Thermal Stability (Tm, C.)” value in series [1] was determined as 85.2 C.

B6: P114AR7P93-H9: c-Met-binding FN3 domain, SEQ ID NO: 40 (protein)
chain: LPAPKNLVVSRVTEDSARLSWTAPDAAFDSFWIRYFEFLGSGEAIVLTVPGSERSYDLTGLKPGTEYVVQIIGVKGGHISLPLSAIFTT
modifications: c-Met binding FN3 domain
B6: the “Thermal Stability (Tm, C.)” value in series [1] came out at 88.2 C.

B7: P114AR7P94-A3: c-Met-binding FN3 domain, SEQ ID NO: 41 (protein)
chain: LPAPKNLVVSRVTEDSARLSWTAPDAAFDSFWIRYFEFLGSGEAIVLTVPGSERSYDLTGLKPGTEYVVNIMGVKGGKISPPLSAIFTT
modifications: c-Met binding FN3 domain
Turning to B7, the “Thermal Stability (Tm, C.)” value in series [1] worked out at 86.2 C.

B8: P114AR7P95-D4: c-Met-binding FN3 domain, SEQ ID NO: 45 (protein)
chain: LPAPKNLVVSRVTEDSARLSWTAPDAAFDSFWIRYFEFLGSGEAIVLTVPGSERSYDLTGLKPGTEYVVQILGVKGGYISIPLSAIFTT
modifications: c-Met binding FN3 domain
For B8, in series [1], the “Thermal Stability (Tm, C.)” value is given as 85.3 C.

B9: P114AR7P95-G7: c-Met-binding FN3 domain, SEQ ID NO: 48 (protein)
chain: LPAPKNLVVSRVTEDSARLSWTAPDAAFDSFWIRYFELLSTGEAIVLTVPGSERSYDLTGLKPGTEYVVNIMGVKGGSISPPLSAIFTT
modifications: c-Met binding FN3 domain
For B9, the “Thermal Stability (Tm, C.)” value in series [1] turned out to be 87.2 C.

B10: P114AR7P93-G8: c-Met-binding FN3 domain, SEQ ID NO: 39 (protein)
chain: LPAPKNLVVSRVTEDSARLSWTAPDAAFDSFWIRYFEFLGSGEAIVLTVPGSERSYDLTDLKPGTEYGVTINGVKGGRVSTPLSAIFTT
modifications: c-Met binding FN3 domain
B10: the “Thermal Stability (Tm, C.)” value in series [1] worked out at 76.8 C.

B11: P114AR7P94-E5: c-Met-binding FN3 domain, SEQ ID NO: 42 (protein)
chain: LPAPKNLVVSRVTEDSARLSWTAPDAAFDSFWIRYFEFLGSGEAIVLTVPGSERSYDLTGLKPGTEYAVNIMGVKGGRVSVPLSAIFTT
modifications: c-Met binding FN3 domain
With B11, the “Thermal Stability (Tm, C.)” value in series [1] came to 80 C.

B12: P114AR7P95-H8: c-Met-binding FN3 domain, SEQ ID NO: 49 (protein)
chain: LPAPKNLVVSRVTEDSARLSWTAPDAAFDSFWIRYFEFVSKGEAIVLTVPGSERSYDLTGLKPGTEYVVNIMGVKGGSISPPLSAIFTT
modifications: c-Met binding FN3 domain
For the molecule B12, the “Thermal Stability (Tm, C.)” value in series [1] is given as 83 C.

B13: P114AR7P92-H5: c-Met-binding FN3 domain, SEQ ID NO: 37 (protein)
chain: LPAPKNLVVSRVTEDSARLSWTAPDAAFDSFWIRYLEFLLGGEAIVLTVPGSERSYDLTGLKPGTEYVVQIMGVKGGTVSPPLSAIFTT
modifications: c-Met binding FN3 domain
As to B13, in series [1], the “Thermal Stability (Tm, C.)” value came to 87 C.

B14: P114AR7P92-F6: c-Met-binding FN3 domain, SEQ ID NO: 35 (protein)
chain: LPAPKNLVVSRVTEDSARLSWTAPDAAFDSFWIRYFEFLGSGEAIVLTVPGSERSYDLTGLKPGTEYVVNILGVKGGGLSVPLSAIFTT
modifications: c-Met binding FN3 domain
B14: the “Thermal Stability (Tm, C.)” value in series [1] is on record as 76.8 C.

B15: P114AR5P74-A5: c-Met-binding FN3 domain, SEQ ID NO: 32 (protein)
chain: LPAPKNLVVSRVTEDSARLSWTAPDAAFDSFWIRYDEVVVGGEAIVLTVPGSERSYDLTGLKPGTEYYVNILGVKGGSISVPLSAIFTT
modifications: c-Met binding FN3 domain
As for B15, the “Thermal Stability (Tm, C.)” value in series [1] was found to be 74.1 C.

B16: ECB94: bispecific FN3: P54AR4-83v22-(AP)5-P114AR7P94-A3v22, SEQ ID NO: 61 (protein)
chain: MLPAPKNLVVSEVTEDSARLSWDDPWAFYESFLIQYQESEKVGEAIVLTVPGSERSYDLTGLKPGTEYTVSIYGVHNVYKDTNIRGLPLSAIFTTAPAPAPAPAPLPAPKNLVVSRVTEDSARLSWTAPDAAFDSFWIRYFEFLGSGEAIVLTVPGSERSYDLTGLKPGTEYVVNILGVKGGKISPPLSAIFTT
modifications: bispecific EGFR/cMet binding molecule
B16: in series [2], the IC50 stood at 0.0296 µM.

B17: ECB96: bispecific FN3: P54AR4-83v22-(AP)5-P114AR9P122-A7v2, SEQ ID NO: 63 (protein)
chain: MLPAPKNLVVSEVTEDSARLSWDDPWAFYESFLIQYQESEKVGEAIVLTVPGSERSYDLTGLKPGTEYTVSIYGVHNVYKDTNIRGLPLSAIFTTAPAPAPAPAPLPAPKNLVVSRVTEDSARLSWTAPDAAFDSFWIRYFEFVSKGDAIVLTVPGSERSYDLTGLKPGTEYVVNILGVKGGSISPPLSAIFTT
modifications: bispecific EGFR/cMet binding molecule
Take B17: in series [2], the IC50 was 9.48 µM.

B18: ECB95: bispecific FN3: P54AR4-83v22-(AP)5-P114AR9P121-A6v2, SEQ ID NO: 62 (protein)
chain: MLPAPKNLVVSEVTEDSARLSWDDPWAFYESFLIQYQESEKVGEAIVLTVPGSERSYDLTGLKPGTEYTVSIYGVHNVYKDTNIRGLPLSAIFTTAPAPAPAPAPLPAPKNLVVSRVTEDSARLSWTAPDAAFDSFWIRYFEFVGSGEAIVLTVPGSERSYDLTGLKPGTEYVVNILGVKGGSISPPLSAIFTT
modifications: bispecific EGFR/cMet binding molecule
In the case of B18, in series [2], the IC50 was 0.383 µM.

B19: ECB97: bispecific FN3: P54AR4-83v22-(AP)5-P114AR7P95-C5v2, SEQ ID NO: 64 (protein)
chain: MLPAPKNLVVSEVTEDSARLSWDDPWAFYESFLIQYQESEKVGEAIVLTVPGSERSYDLTGLKPGTEYTVSIYGVHNVYKDTNIRGLPLSAIFTTAPAPAPAPAPLPAPKNLVVSRVTEDSARLSWTAPDAAFDSFWIRYFEFLGSGEAIVLTVPGSERSYDLTGLKPGTEYVVNILSVKGGSISPPLSAIFTT
modifications: bispecific EGFR/cMet binding molecule
Consider B19, for which, in series [2], the IC50 was determined as 0.031 µM.

B20: P54CR4-31: EGFR-binding FN3 domain, SEQ ID NO: 26 (protein)
chain: LPAPKNLVVSEVTEDSLRLSWTAPDAAFDSFLIQYQESEKVGEAINLTVPGSERSYDLTGLKPGTEYTVSIYGVLGSYVFEHDVMLPLSAEFTT
modifications: EGFR binding FN3 domain
On to B20, for which, in series [1], the “Tm (° C.)” value was 60.9 °C.

B21: P54CR4-31v2: stabilized EGFR-binding FN3 domain, SEQ ID NO: 28 (protein)
chain: LPAPKNLVVSEVTEDSARLSWTAPDAAFDSFLIQYQESEKVGEAIVLTVPGSERSYDLTGLKPGTEYTVSIYGVLGSYVFEHDVMLPLSAIFTT
modifications: EGFR binding FN3 domain
Regarding B21, in series [1], the “Tm (° C.)” value is 78.9 °C.

(Values after patent US9580508B2, “Bispecific EGFR/c-Met antibodies” (Janssen Biotech, Inc., priority 2012, dated 2017).)
